T1: human VTCN1 protein (Homo sapiens, UniProt Q7Z7D3)
T1 construct: His
T1 sequence (Q7Z7D3 25-282): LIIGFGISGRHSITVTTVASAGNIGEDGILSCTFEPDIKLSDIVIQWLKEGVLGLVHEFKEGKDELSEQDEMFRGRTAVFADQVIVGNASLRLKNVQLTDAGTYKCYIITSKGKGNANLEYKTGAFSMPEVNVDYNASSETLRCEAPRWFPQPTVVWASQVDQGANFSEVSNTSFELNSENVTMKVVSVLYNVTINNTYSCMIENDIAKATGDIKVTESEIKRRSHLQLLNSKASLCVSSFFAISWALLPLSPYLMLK

T2: mouse VTCN1 protein (Mus musculus, UniProt Q7TSP5)
T2 construct: His
T2 sequence (Q7TSP5 25-257): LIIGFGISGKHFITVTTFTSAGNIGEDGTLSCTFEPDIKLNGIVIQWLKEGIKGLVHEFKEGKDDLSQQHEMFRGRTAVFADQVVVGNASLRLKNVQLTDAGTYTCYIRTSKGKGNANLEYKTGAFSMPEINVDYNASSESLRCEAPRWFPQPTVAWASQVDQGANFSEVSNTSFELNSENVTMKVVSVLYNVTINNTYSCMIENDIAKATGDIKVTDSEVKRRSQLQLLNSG

T3: 293 cells expressing recombinant human VTCN1 (Homo sapiens, UniProt Q7Z7D3)
T3 construct: expressed in transfected cells; host or cells: 293 cells
T3 sequence (Q7Z7D3 25-282): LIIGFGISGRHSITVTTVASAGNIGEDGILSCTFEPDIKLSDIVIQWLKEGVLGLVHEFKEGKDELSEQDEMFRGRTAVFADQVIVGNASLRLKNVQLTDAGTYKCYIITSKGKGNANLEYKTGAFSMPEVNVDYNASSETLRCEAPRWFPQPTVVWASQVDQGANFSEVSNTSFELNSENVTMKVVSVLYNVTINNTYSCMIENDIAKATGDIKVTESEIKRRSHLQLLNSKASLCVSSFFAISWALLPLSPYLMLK


Experiments:
human VTCN1 protein = target: T1, human VTCN1 protein; experiment: Affinity to recombinant VTCN1-his by OCTET Red (Protein A biosensors); format: binding; conditions: Table 12
Procedure: (§1) The affinity of antibodies to recombinant VTCN1 was determined on an OCTET™ Red (Pall, ForteBio) instrument. After loading reagents into a 96-well plate, the OCTET™ Red with Protein A-conjugated biosensors was programmed as follows: 30 seconds for baseline #1; 45 seconds to immobilize the antibody; 30 seconds for baseline #2; 300 seconds for association of antibody to recombinant VTCN1-his; and 300 seconds for dissociation of recombinant VTCN1-his from the antibody. Table 5 lists the affinity measured for selected antibodies.

mouse VTCN1 protein = target: T2, mouse VTCN1 protein; experiment: Affinity by OCTET, mouse VTCN1; format: binding; conditions: Table 12
Procedure: as §1

[1] = target: T3, 293 cells expressing recombinant human VTCN1; experiment: Cell-based competition binding FACS assay against 6D9; conditions: 6D9 10 μg/ml, human antibody 1 μg/ml
Procedure: To assess if these human VTCN1 antibodies bind to same or different regions of VTCN1 protein, a cell-based competition binding FACS assay was performed. […] The cells were then resuspend in FACS buffer with DAPI, and analyzed by flow cytometry.

[2] = test system: cynomolgus monkey VTCN1 protein; experiment: Affinity by OCTET, cynomolgus monkey VTCN1; format: binding; conditions: Table 12
Procedure: as §1, with “antibody.” for “antibody. Table 5 lists the affinity measured for selected antibodies.”

KLN205 tumors = experiment: KLN205 syngeneic mouse lung squamous tumor model in DBA2 mice; format: in vivo
Procedure: For the tumor study. 6-8 week-old female DBA2 mice were implanted subcutaneously in the right flank with 2.5×10^5 mouse lung squamous carcinoma KLN205 cells in 50% matrigel on day 0. Mice were treated with PBS as a vehicle control, a mouse IgG isotype control (10 mg/kg), or anti-VTCN1 6D9 antibody (10 mg/kg) on days 3, 6, 10, 13, 15, 17, 20, and 22 following tumor implantation by intraperitoneal (i.p.) injection. Tumors were measured using an electronic caliper twice a week and tumor volume was calculated using the formula 0.52*length*width*width. Mouse body weight was also measured and recorded.
6-8 week-old female DBA2 mice were implanted subcutaneously in the right flank with 2.5×10^5 mouse lung squamous carcinoma cell KLN205 cells in 50% matrigel on day 0. Tumors were measured on day 7 and mice are randomized to 7 treatment groups. The average size was 50 mm^3. The treatment groups were: PBS vehicle control, mIgG2a isotype control. 6D9, anti-mouse PD1 antibody RMP1-14, 6D9+RMP1-14, anti-mouse CTLA-4 antibody 9D9, and 6D9+9D9. The mice were treated on days 8, 11, 13, 15, 18, 20, 22, and 25. All antibodies were 10 mg/kg by i.p.
To test the activity of the 6D9 and 6D9-mIgG1 antibodies, 6-8 weeks old female DBA2 mice were implanted subcutaneously in the right flank with 0.2 million KLN205 cells in PBS on day 0. Mice were randomized on day 9 into 3 treatment groups, mIgG1 control. 6D9-mIgG1, 6D9-mIgG2a. Mice were treated on days 9, 11, 15, 18, and 22 by i.p. with 200 μg antibodies (10 mg/kg). […] However.

Molecule | Human K(off) (human VTCN1 protein) | Human k(on) (human VTCN1 protein) | mouse k(off) (mouse VTCN1 protein) | mouse k(on) (mouse VTCN1 protein) | competition with 6D9 for binding to VTCN1 [1] | cynomolgus monkey k(off) [2] | cynomolgus monkey k(on) [2] | mouse survival / time to tumor end point 1500 mm^3 (KLN205 tumors; Example 15) | KLN205 primary tumor growth, isotype comparison (KLN205 tumors; Example 15, 200 μg (10 mg/kg) i.p. from day 9)
4C7_63A1: fully human VTCN1 antibody; VH SEQ ID NO: 248, VL SEQ ID NO: 252 (antibody, V domains shown) VH: QVQLQESGPGLVKPSGTLSLTCAVSGGSISSSNWWSWVRQPPGKGLEAIGEIYHSGNTNYNPSLKSRVTISVDKSKNQFSLKLSSVTAADTAIYYCARDGYSSGWYWGYFDYWGQGTLVTVSS VL: EIVMTQSPATLSVSPGERATLSCRASQSVNSNLAWYQQKPGQAPWLLIYGASTRATGIPARFSGSGSGTEFTLTISSLQSEDFAVYYCQQYNHWPYTFGQGTKLEIK | 5.81E−03 | 1.19E+05 | 4.01E−03 | 9.07E+04 | compete with 6D9 | 5.80E−03 | 1.23E+05 | – | –
12B5_44B1: fully human VTCN1 antibody; VH SEQ ID NO: 264, VL SEQ ID NO: 268 (antibody, V domains shown) VH: QVQLVQSGAEVKKPGSSMKVSCKASGDTFSSYAISWVRQAPGQGLEWMAGIIPVFGTAHNAQKFQGRVTITADKSTSTAYMELSSLRSEDTAVYYCTRGGPYFDYWGQGTLVTVSS VL: EIVMTQSPATLSVSPGERAALSCRASQSVSSNLAWYQQKPGQAPRLLIYGVSTRATGIPDRFNGSGSGTEFTLTISSLQSEDFGAYYCQQYKKWPFIFGPGTKLEIK | 3.54E−04 | 1.61E+05 | 8.11E−03 | 2.15E+05 | do not compete with 6D9 | 3.74E−04 | 1.80E+05 | – | –
14D6_60B5: fully human VTCN1 antibody; VH SEQ ID NO: 278, VL SEQ ID NO: 281 (antibody, V domains shown) VH: QVQLVHSGAEVKRPGSSVKVSCKASGGTFSSYAISWVRQAPGQGLEWMGGIIPIFGIANYAQKFQGRVTIIADKSTRTAYMELSSLRSEDTAVYYCARGGPYFDYWGQGILVTVSS VL: EIVMTQSPATLSVSPGERATLSCRASQSVSSNLAWYQQKPGQAPRLLIYGASTRATGIPARFSGSGSGTEFTLTISSLQSEDFAVYYCQQYNKWPFTFGPGTKVDIK | 6.29E−04 | 1.32E+05 | 6.47E−03 | 1.15E+05 | do not compete with 6D9 | 6.91E−04 | 1.32E+05 | – | –
16H12_60B4: fully human VTCN1 antibody; VH SEQ ID NO: 283, VL SEQ ID NO: 286 (antibody, V domains shown) VH: QVQVVQSGAEVKKPGSSVKVSCKASGDTFSNYAISWVRQAPGQGLEWMGGIIPIFGITNYAQKFQGRVTIIADKSTRTAYMELSSLRSEDTAVYYCSRGGPYFDYWGQGILVTVSS VL: EIVMTQSPATLSVSPGERATLSCRASQSVSSNLAWYQQKPGQAPRLLIYGASTRATGIPARFSGSGSGTEFTLTISSLQSEDFAVYYCQQYKKWPFTFGPGTKVDIK | 1.95E−04 | 2.62E+05 | 3.76E−03 | 1.37E+05 | do not compete with 6D9 | 2.40E−04 | 2.45E+05 | – | –
6D9-mIgG1: 6D9 antibody converted from a mouse IgG2a to a mouse IgG1 (antibody, V domains shown) VH: QIQLQQSGPGLVQPSQSLSITCTVSGFSLTSYGVQWIRQSPGKGLEWLGVIWSSGSTDYNAAFLSRLSFSKDNSKSQVFFQMNSLQADDSAIYYCARDVTTIVEGFAHWGQGTLVTVSA VL: NIVMTQSPKSMSMSVGERVTLSCKASEKVGTYVSWYQQKPEQSPKLLIYGASNRYTGVPDRFTGSGSATDFTLTISSVQVEDLADYHCGQTYSYPFTFGSGTKLEIK | – | – | – | – | – | – | – | prolonged mouse survival | inhibit primary tumor growth
